{
  "source": "the MegaScale stability set (Tsuboyama et al. 2023)",
  "parents": {"B1": {"name": "5KPH (parent)", "chain": "EEKRQVKQVAKEKLLEQSPNSKVQVRRVQKQGNTIRVELELRTNGKKENYTVEVERQGNTWTVKRITRT"}},
  "data": [
    {"variants_of": "B1", "assay": "folding stability dG (cDNA display proteolysis); higher = more stable", "conditions": "PBS, room temperature", "units": {"folding stability dG": "kcal/mol"}, "values": [
      {"variant": "EEKRQVKQVAKEKLLEQSPNSKVQVRRVQKQGNTIRVELELRTNGKKENYTVEVERQGNTWTGKRITRT", "note": "[V63G]", "folding stability dG": 1.35},
      {"variant": "EEKRQVKQVAKEKLLEQSPNSKVQVRRVQKQGNTIRVELELRTNGKKENYTVEVERQGNTWTCKRITRT", "note": "[V63C]", "folding stability dG": 2.96},
      {"variant": "EEKRQVKQVAKEKLLEQSPNSKVQVRRVQKQGNTIRVELELRTNGKKENYTVEVERQGNTWTHKRITRT", "note": "[V63H]", "folding stability dG": 1.18},
      {"variant": "EEKRQVKQVAKEKLLEQSPNSKVQVRRVQKQGNTIRVELELRTNGKKENYTVEVERQGNTWTAKRITRT", "note": "[V63A]", "folding stability dG": 3.02},
      {"variant": "EEKRQVKQVAKEKLLEQSPNSKVQVRRVQKQGNTIRVELELRTNGKKENYTVEVERQGNTWTFKRITRT", "note": "[V63F]", "folding stability dG": 2.78},
      {"variant": "EEKRQVKQVAKEKLLEQSPNSKVQVRRVQKQGNTIRVELELRTNGKKENYTVEVERQGNTWTDKRITRT", "note": "[V63D]", "folding stability dG": 0.956},
      {"variant": "EEKRQVKQVAKEKLLEQSPNSKVQVRRVQKQGNTIRVELELRTNGKKENYTVEVERQGYTWTVKRITRT", "note": "[N59Y]", "folding stability dG": 3.82},
      {"variant": "EEKRQVKQVAKEKLLEQSPNSKVQVRRVQKQGNTIRVELELRTNGKKENYTVEVERQGHTWTVKRITRT", "note": "[N59H]", "folding stability dG": 3.62},
      {"variant": "EEKRQVKQVAKEKLLEQSPNSKVQVRRVQKQGNTIRVELELRTNGKKENYTVEVERQGRTWTVKRITRT", "note": "[N59R]", "folding stability dG": 3.33},
      {"variant": "EEKRQVKQVAKEKLLEQSPNSKVQVRRVQKQGNTIRVELELRTNGKKENYTVEVERQGWTWTVKRITRT", "note": "[N59W]", "folding stability dG": 3.5},
      {"variant": "EEKRQVKQVAKEKLLEQSPNSKVQVRRVQKQGNTIRVELELRTNGKKENYTVEVERQGLTWTVKRITRT", "note": "[N59L]", "folding stability dG": 3.68},
      {"variant": "EEKRQVKQVAKEKLLEQSPNSKVQVRRVQKQGNTIRVELELRTNGKKENYTVEVERQGMTWTVKRITRT", "note": "[N59M]", "folding stability dG": 3.92},
      {"variant": "EEKRQVKQVAKEKLLEQSPNSKVQVRRVQKQGNTIRVELELRTNGKKENYTVEVERQGTTWTVKRITRT", "note": "[N59T]", "folding stability dG": 3.77},
      {"variant": "EEKRQVKQVAKEKLLEQSPNSKVQVRRVQKQGNTIRVELELRTNGKKENYTVEVERQGGTWTVKRITRT", "note": "[N59G]", "folding stability dG": 4},
      {"variant": "EEKRQVKQVAKEKLLEQSPNSKVQVRRVQKQGNTIRVELELRTNGKKENYTVEVERQGKTWTVKRITRT", "note": "[N59K]", "folding stability dG": 3.73},
      {"variant": "EEKRQVKQVAKEKLLEQSPNSKVQVRRVQKQGNTIRVELELRTNGKKENYTVEVERQGVTWTVKRITRT", "note": "[N59V]", "folding stability dG": 3.42},
      {"variant": "EEKRQVKQVAKEKLLEQSPNSKVQVRRVQKQGNTIRVELELRTNGKKENYTVEVERQGSTWTVKRITRT", "note": "[N59S]", "folding stability dG": 3.62},
      {"variant": "EEKRQVKQVAKEKLLEQSPNSKVQVRRVQKQGNTIRVELELRTNGKKENYTVEVERQGQTWTVKRITRT", "note": "[N59Q]", "folding stability dG": 3.77},
      {"variant": "EEKRQVKQVAKEKLLEQSPNSKVQVRRVQKQGNTIRVELELRTNGKKENYTVEVERQGPTWTVKRITRT", "note": "[N59P]", "folding stability dG": 3.84},
      {"variant": "EEKRQVKQVAKEKLLEQSPNSKVQVRRVQKQGNTIRVELELRTNGKKENYTVEVERQGITWTVKRITRT", "note": "[N59I]", "folding stability dG": 3.54},
      {"variant": "EEKRQVKQVAKEKLLEQSPNSKVQVRRVQKQGNTIRVELELRTNGKKENYTVEVERQGNHWTVKRITRT", "note": "[T60H]", "folding stability dG": 4.02},
      {"variant": "EEKRQVKQVAKEKLLEQSPNSKVQVRRVQKQGNTIRVELELRTNGKKENYTVEVERQGNGWTVKRITRT", "note": "[T60G]", "folding stability dG": 4.12},
      {"variant": "EEKRQVKQVAKEKLLEQSPNSKVQVRRVQKQGNTIRVELELRTNGKKENYTVEVERQGNKWTVKRITRT", "note": "[T60K]", "folding stability dG": 3.99},
      {"variant": "EEKRQVKQVAKEKLLEQSPNSKVQVRRVQKQGNTIRVELELRTNGKKENYTVEVERQGNVWTVKRITRT", "note": "[T60V]", "folding stability dG": 4.01},
      {"variant": "EEKRQVKQVAKEKLLEQSPNSKVQVRRVQKQGNTIRVELELRTNGKKENYTVEVERQGNCWTVKRITRT", "note": "[T60C]", "folding stability dG": 3.33},
      {"variant": "EEKRQVKQVAKEKLLEQSPNSKVQVRRVQKQGNTIRVELELRTNGKKENYTVEVERQGNSWTVKRITRT", "note": "[T60S]", "folding stability dG": 4.13},
      {"variant": "EEKRQVKQVAKEKLLEQSPNSKVQVRRVQKQGNTIRVELELRTNGKKENYTVEVERQGNPWTVKRITRT", "note": "[T60P]", "folding stability dG": 1.45},
      {"variant": "EEKRQVKQVAKEKLLEQSPNSKVQVRRVQKQGNTIRVELELRTNGKKENYTVEVERQGNAWTVKRITRT", "note": "[T60A]", "folding stability dG": 3.83},
      {"variant": "EEKRQVKQVAKEKLLEQSPNSKVQVRRVQKQGNTIRVELELRTNGKKENYTVEVERQGNEWTVKRITRT", "note": "[T60E]", "folding stability dG": 4.16},
      {"variant": "EEKRQVKQVAKEKLLEQSPNSKVQVRRVQKQGNTIRVELELRTNGKKENYTVEVERQGNMWTVKRITRT", "note": "[T60M]", "folding stability dG": 4},
      {"variant": "EEKRQVKQVAKEKLLEQSPNSKVQVRRVQKQGNTIRVELELRTNGKKENYTVEVERQGNYWTVKRITRT", "note": "[T60Y]", "folding stability dG": 3.79},
      {"variant": "EEKRQVKQVAKEKLLEQSPNSKVQVRRVQKQGNTIRVELELRTNGKKENYTVEVERQGNNWTVKRITRT", "note": "[T60N]", "folding stability dG": 4.07},
      {"variant": "EEKRQVKQVAKEKLLEQSPNSKVQVRRVQKQGNTIRVELELRTNGKKENYTVEVERQGNWWTVKRITRT", "note": "[T60W]", "folding stability dG": 4.16},
      {"variant": "EEKRQVKQVAKEKLLEQSPNSKVQVRRVQKQGNTIRVELELRTNGKKENYTVEVERQGNFWTVKRITRT", "note": "[T60F]", "folding stability dG": 3.96},
      {"variant": "EEKRQVKQVAKEKLLEQSPNSKVQVRRVQKQGNTIRVELELRTNGKKENYTVEVERQGNRWTVKRITRT", "note": "[T60R]", "folding stability dG": 3.97},
      {"variant": "EEKRQVKQVAKEKLLEQSPNSKVQVRRVQKQGNTIRVELELRTNGKKENYTVEVERQGNQWTVKRITRT", "note": "[T60Q]", "folding stability dG": 4.23},
      {"variant": "EEKRQVKQVAKEKLLEQSPNSKVQVRRVQKQGNTIRVELELRTNGKKENYTVEVERQGNLWTVKRITRT", "note": "[T60L]", "folding stability dG": 3.63},
      {"variant": "EEKRQVKQVAKEKLLEQSPNSKVQVRRVQKQGNTIRVELELRTNGKKENYTVEVERQGNDWTVKRITRT", "note": "[T60D]", "folding stability dG": 3.77},
      {"variant": "EEKRQVKQVAKEKLLEQSPNSKVQVRRVQKQGNTIRVELELRTNGKKENYTVEVERQGNIWTVKRITRT", "note": "[T60I]", "folding stability dG": 4.11}
    ]}
  ]
}
